Test [1] has as its target T1, recombinant human LTBP1-proTGFβ1 complex (human, UniProt Q14766 347-1721; P01137 30-390). The test is described as follows: cell-based or functional assay.
Test [2] concerns the target T2, recombinant human LTBP3-proTGFβ1 complex (human, UniProt Q9NS15 44-1303; P01137 30-390, limits assumed). The test can be described thus: cell-based or functional assay.
The target of test [3] is human GARP-proTGFβ1 complex presented on the cell surface (human, UniProt Q14392 20-662; P01137 30-390). The test is described as follows: cell-based or functional assay.
Test [4] concerns the target human LRRC33-proTGFβ1 complex presented on the cell surface (human, UniProt Q86YC3 19-692; P01137 30-390). The test can be described thus: cell-based or functional assay.
Test [5] has as its target T1, recombinant human LTBP1-proTGFβ1 complex. The test is described as follows: Octet (BLI); IgG1 from yeast.
The target in test [6] is T2, recombinant human LTBP3-proTGFβ1 complex. The test can be described thus: Octet (BLI); IgG1 from yeast. (In general: Biolayer interferometry detects binding as a change in optical thickness at a sensor tip.)
Test [7] deals with T3, recombinant human GARP-proTGFβ1 complex (human, UniProt Q14392 20-627; P01137 30-390, limits assumed).
T3 construct: Purified complex of the Octet and MSD-SET assays, biotinylated; also called hGARP; hGARP-proTGFβ1
The test can be described thus: Octet (BLI); IgG1 from yeast.

In test [8] the target is T4, recombinant human LRRC33-proTGFβ1 complex (human, UniProt Q86YC3 19-650; P01137 30-390, limits assumed).
T4 construct: Purified complex of the Octet and MSD-SET assays, biotinylated; also called hLRRC33; hLRRC33-proTGFβ1
The test is described as follows: Octet (BLI); IgG1 from yeast.

Test [9] concerns the target T1, recombinant human LTBP1-proTGFβ1 complex. The test can be described thus: MSD-SET; IgG4 from mammalian cells.
Test [10] concerns the target T2, recombinant human LTBP3-proTGFβ1 complex. The test is described as follows: MSD-SET; IgG4 from mammalian cells.
In test [11] the target is T3, recombinant human GARP-proTGFβ1 complex. The test is described as follows: MSD-SET; IgG4 from mammalian cells.
Test [12] has as its target T4, recombinant human LRRC33-proTGFβ1 …. The test can be described thus: MSD-SET; IgG4 from mammalian cells.

T2 sequence (Q9NS15 44-1303 limits assumed, chain 1 of 2): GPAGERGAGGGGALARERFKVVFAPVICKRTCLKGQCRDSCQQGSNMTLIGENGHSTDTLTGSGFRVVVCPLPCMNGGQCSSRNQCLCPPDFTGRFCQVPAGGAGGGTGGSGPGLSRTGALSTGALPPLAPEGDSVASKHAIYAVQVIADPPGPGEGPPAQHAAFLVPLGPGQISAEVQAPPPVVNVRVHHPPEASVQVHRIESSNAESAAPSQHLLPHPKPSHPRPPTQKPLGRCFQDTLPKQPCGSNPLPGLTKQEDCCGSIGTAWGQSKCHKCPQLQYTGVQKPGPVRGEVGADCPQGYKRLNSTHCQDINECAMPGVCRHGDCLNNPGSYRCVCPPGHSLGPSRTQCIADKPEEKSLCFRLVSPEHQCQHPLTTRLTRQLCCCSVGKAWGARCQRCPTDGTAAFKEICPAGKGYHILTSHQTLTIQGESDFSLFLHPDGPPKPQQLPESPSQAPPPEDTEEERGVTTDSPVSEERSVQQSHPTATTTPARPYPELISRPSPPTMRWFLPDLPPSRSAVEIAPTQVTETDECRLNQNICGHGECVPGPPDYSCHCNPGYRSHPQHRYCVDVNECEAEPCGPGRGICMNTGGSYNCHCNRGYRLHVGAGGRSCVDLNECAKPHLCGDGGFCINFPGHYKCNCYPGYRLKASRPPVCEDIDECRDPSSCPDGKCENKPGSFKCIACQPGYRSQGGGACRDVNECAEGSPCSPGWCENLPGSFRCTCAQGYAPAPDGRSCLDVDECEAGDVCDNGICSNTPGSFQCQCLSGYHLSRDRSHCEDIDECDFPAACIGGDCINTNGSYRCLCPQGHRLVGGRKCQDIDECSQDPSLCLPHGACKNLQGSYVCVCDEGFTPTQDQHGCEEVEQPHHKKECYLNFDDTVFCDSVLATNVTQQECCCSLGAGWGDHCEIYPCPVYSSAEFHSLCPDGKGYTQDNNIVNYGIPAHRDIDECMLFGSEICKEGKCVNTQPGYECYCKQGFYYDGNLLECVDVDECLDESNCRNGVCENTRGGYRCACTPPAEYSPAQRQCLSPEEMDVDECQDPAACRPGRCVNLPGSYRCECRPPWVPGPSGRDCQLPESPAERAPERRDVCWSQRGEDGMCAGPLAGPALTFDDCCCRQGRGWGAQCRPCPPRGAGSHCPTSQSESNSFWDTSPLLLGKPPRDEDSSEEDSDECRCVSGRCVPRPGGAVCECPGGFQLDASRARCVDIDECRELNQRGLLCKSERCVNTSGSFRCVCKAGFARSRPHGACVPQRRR
T2 sequence (P01137 30-390 limits assumed, chain 2 of 2): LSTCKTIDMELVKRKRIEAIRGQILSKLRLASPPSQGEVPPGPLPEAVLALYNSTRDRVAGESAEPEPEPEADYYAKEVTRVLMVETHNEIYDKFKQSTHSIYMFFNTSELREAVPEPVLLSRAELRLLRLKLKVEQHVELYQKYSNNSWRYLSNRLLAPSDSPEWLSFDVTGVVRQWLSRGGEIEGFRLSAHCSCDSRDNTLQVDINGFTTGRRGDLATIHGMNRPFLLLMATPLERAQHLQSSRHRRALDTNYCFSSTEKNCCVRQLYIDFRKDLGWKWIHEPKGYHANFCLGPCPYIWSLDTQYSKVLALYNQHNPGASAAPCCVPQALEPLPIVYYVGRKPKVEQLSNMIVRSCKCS
T1 sequence (Q14766 347-1721 limits assumed, chain 1 of 2): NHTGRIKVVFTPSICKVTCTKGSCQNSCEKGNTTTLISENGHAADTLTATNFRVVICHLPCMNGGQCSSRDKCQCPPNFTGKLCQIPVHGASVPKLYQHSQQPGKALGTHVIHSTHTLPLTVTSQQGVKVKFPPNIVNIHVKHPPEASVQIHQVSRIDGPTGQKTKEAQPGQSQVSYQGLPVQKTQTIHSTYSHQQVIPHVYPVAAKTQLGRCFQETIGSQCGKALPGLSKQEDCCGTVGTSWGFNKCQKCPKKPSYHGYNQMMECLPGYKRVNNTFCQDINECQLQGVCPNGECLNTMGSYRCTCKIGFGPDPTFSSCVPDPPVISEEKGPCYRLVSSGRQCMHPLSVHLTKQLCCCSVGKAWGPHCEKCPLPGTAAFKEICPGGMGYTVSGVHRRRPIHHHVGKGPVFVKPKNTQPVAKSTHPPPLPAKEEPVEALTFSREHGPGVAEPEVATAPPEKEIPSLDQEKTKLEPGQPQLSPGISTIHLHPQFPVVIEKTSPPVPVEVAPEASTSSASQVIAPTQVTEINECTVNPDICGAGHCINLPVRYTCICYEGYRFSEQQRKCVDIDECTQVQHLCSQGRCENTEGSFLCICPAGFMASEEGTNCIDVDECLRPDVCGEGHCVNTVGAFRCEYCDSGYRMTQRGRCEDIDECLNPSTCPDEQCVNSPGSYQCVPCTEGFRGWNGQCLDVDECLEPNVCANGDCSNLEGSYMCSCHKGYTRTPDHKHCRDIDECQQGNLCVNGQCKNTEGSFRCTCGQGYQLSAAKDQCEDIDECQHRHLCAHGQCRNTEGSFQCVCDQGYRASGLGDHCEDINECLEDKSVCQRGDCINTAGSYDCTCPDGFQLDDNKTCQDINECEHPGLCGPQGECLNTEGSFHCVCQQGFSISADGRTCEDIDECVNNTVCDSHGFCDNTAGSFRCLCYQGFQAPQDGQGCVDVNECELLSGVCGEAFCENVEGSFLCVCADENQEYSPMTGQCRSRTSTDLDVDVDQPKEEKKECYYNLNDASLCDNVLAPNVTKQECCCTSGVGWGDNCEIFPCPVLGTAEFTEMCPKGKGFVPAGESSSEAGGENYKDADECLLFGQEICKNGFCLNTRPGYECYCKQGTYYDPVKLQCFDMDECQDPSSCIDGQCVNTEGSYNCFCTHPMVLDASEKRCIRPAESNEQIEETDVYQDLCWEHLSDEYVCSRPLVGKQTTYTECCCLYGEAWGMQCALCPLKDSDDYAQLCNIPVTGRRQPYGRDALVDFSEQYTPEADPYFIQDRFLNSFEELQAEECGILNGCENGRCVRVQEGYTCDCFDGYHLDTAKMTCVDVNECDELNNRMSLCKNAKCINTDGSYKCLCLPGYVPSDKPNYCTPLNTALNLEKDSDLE
T1 sequence (P01137 30-390 limits assumed, chain 2 of 2): as the sequence (P01137 30-390 limits assumed, chain 2 of 2) above
T3 sequence (Q14392 20-627 limits assumed, chain 1 of 2): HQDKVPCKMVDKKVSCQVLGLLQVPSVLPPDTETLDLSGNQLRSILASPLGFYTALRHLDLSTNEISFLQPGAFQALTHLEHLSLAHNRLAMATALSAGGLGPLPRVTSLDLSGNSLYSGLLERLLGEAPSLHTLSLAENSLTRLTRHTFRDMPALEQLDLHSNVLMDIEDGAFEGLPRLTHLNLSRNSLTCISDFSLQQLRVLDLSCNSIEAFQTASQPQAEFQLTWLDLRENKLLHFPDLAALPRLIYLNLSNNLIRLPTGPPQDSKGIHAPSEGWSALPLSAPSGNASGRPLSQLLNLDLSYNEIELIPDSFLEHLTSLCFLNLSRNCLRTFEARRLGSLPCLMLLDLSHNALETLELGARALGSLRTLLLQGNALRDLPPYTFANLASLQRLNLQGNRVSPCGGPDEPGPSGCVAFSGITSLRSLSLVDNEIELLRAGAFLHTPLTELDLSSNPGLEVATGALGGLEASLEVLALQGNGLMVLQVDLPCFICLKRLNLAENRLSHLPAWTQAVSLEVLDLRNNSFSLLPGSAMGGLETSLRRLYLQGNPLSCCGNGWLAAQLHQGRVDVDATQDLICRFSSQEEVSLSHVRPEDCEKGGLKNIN
T3 sequence (P01137 30-390 limits assumed, chain 2 of 2): as the sequence (P01137 30-390 limits assumed, chain 2 of 2) above
T4 sequence (Q86YC3 19-650 limits assumed, chain 1 of 2): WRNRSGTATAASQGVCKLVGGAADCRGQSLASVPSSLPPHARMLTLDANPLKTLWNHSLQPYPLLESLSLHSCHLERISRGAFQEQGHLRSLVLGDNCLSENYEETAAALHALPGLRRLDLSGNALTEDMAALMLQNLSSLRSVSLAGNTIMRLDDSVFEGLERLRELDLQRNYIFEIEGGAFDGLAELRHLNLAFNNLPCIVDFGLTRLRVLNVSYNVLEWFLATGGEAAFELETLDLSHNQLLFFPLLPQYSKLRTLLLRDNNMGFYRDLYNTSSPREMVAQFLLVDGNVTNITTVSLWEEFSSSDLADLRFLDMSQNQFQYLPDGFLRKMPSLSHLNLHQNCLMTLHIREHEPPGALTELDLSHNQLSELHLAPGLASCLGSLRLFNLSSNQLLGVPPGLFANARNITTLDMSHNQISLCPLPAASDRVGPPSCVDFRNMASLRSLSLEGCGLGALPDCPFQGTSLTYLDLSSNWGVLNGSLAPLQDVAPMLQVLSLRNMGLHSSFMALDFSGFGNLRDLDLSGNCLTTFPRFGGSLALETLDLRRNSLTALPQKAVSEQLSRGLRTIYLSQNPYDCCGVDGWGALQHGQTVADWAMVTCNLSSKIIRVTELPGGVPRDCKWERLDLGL
T4 sequence (P01137 30-390 limits assumed, chain 2 of 2): as the sequence (P01137 30-390 limits assumed, chain 2 of 2) above

B1: Ab3 (antibody, V domains shown)
VH: EVQLLESGGGLVQPGGSLRLSCAASGFTFRNYAMSWVRQAPGKGLEWVSSISGSGGATYYADSVKGRFTISRDNSKNTLYLQMNSLRAEDTAVYYCARVSSGHWDFDYWGQGTLVTVSS
VL: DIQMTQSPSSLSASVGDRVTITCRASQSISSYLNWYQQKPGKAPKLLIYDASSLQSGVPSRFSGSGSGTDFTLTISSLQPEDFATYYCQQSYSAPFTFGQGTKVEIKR
As usually defined, the Kd is a measure of binding affinity in units of concentration. B1: the “IC50 (nM), cell-based potency assay, CAGA12 luciferase reporter” value in test [1] was 24.3 nM; in [2], 10.4 nM; in test [3] it was 0.981 nM; in test [4] it was 0.858 nM. The Kd in test [5] turned out to be 0.47 nM; in test [6], 0.459 nM; in test [7], 17.3 nM; in [8], 8.52 nM; in test [9], 13 nM; in test [10], 16.2 nM. The figures for the Kd in [11] and in [12] were 28 nM and 35 nM, respectively.

(Values after US20210340238A1 (SCHOLAR ROCK, published 2021).)
